Three substances from PMC4004541, “PEG-Like Nanoprobes: Multimodal, Pharmacokinetically and Optically Tunable Nanomaterials” (PLoS ONE, 2014) can be followed below.

Series [1] is described as follows: Probe size (volume) by FPLC calibrated with globular protein standards. It is filed as physicochemical. To be noted: for Volume FPLC, globular protein equivalent molecular volume: Superdex 200 10/300GL, 0.05 M sodium phosphate, 0.1 M NaCl (0.1% Tween, pH 7.2), 0.8 ml/min, calibrated with globular protein standards; for Volume FPLC Dia. (diameter): globular protein equivalent volume from FPLC converted to spherical diameter by formula (ref 15). An excerpt: FPLC chromatograms are shown for PN’s bearing the IR-783 fluorochrome with PEG’s ranging from 2 to 40 kDa ( Figure 2A ). FPLC was calibrated with globular protein standards, and globular protein equivalent molecular volumes (in kDa) were obtained ( Table 1 , column 5). Next, these globular protein equivalent molecular volumes were converted to PN diameters in nm using the relationship: [drawing 1] where M is the molecular weight of a globular protein expressed in daltons. PN diameters ranged from 3.0 to 11.7 nm, which means PN’s can be smaller or larger than albumin (MW = 67 kDa; diameter = 5.4 nm, by the formula above). Thus Table 1 column 5 gives the PN volumes obtained from FPLC expressed in two ways: (i) as the molecular weight in kDa of globular proteins with equivalent volumes, permitting size comparison of PN’s to proteins, and, (ii) as spherical diameters (“Dia.”) in nm, permitting size comparisons of a PN to relative to other nanomaterials. We confirmed the sizes obtained with FPLC by measuring the size of PN(783)11.7 by dynamic light scattering (11.7 nm).
The mass spec of low molecular weight (MW) materials were obtained by MS-ESI Micromass (Waters) and high MW molecules were determined through MALDI-TOF analyses at the Tufts University Core Facility. RP-HPLC (Varian ProStar detector and delivery modules) employed an eluant A (0.1% TFA/water) and eluant B (0.1% TFA and 9.9% water in acetonitrile). Probe size (volume) was determined by FPLC using an ÄKTA Purifier 10 and SuperdexTM 200 10/300GL column (GE Healthcare) with a running buffer of 0.05 M sodium phosphate, 0.1 M NaCl (0.1% Tween, pH 7.2) and flow rate of 0.8 ml/min. Standards (GE Healthcare) were Ferritin, Ribonuclease A, Carbonic Anhydrase, and Conalbumin and Blue Dextran 2000. To obtain probe volumes, Mr (apparent molecular weight based on size exclusion retention) was plotted versus Kav. [drawing 7] , Vt = total volume, Ve = elution volume, Vo = void volume.
PN and peptide characterization: The mass spec of low molecular weights (MW) were obtained by MS-ESI Micromass (Waters) and high MW molecules were determined through MALDI-TOF analyses at the Tufts University Core Facility. RP-HPLC (Varian ProStar detector and delivery modules) employed an eluant A (0.1% TFA /water) and eluant B (0.1% TFA and 9.9% water in acetonitrile). […] Standards (GE Healthcare) were Ferritin, Ribonuclease A, Carbonic Anhydrase, and Conalbumin and Blue Dextran 2000. To obtain probe volumes, Mr (apparent molecular weight based on size exclusion retention) was plotted versus Kav. [picture] , Vt = total volume, Ve = elution volume, Vo = void volume.

The conditions of series [2]: mouse, in vivo; for Alpha half-life / Beta half-life / k elim half-life / k perm half-life / k vas return half-life: iv.
Experimental: To assess the relationship between PN dimensions and transcapillary passage, the classic two compartment pharmacokinetic model ( Figure 4A ) [17] was applied to PN(783)10.0 ( Figure 4B ) and PN(783)4.3 ( Figures 4C ).
Groups of 5 nude mice (female; 25–30 g; 6–8 weeks old; nu/nu) were injected (tail vein, IV) with 10 nmole of PN(783)4.3 or PN(783)10.0. 50 µl of blood was collected from tail tip at the indicated times. The blood was processed as above, and diluted (25 µl plasma, 700 µl of PBS). Fluorescence was measured with Cary Eclipse Fluorescence Spectrophotometer, excitation at 765 nm and emission from 790 to 880 nm. The fluorescence intensity at 806 nm was plotted over time, and the data was fit to a biexponential, two phase decay curve. The fast and slow distribution half-life was given by the two phase decay fit with Graphpad Prism software.
From the two phase decay fit, a biexponential equation for blood concentration as a function of time, [drawing 8] , was obtained. By the relation of macro constants and micro constants: [drawing 9] , [drawing 10] , [drawing 11] [drawing 12] , micro constants k's can be obtained, and the half-life was calculated by [drawing 13] , as described in [17]. The curve for interstitium concentration vs. time was fit with MATLAB based on the curve of blood concentration vs. time.
PN pharmacokinetics: Groups of 5 nude mice (female; 25-30g; 6-8 weeks old; nu/nu) were injected (tail vein, IV) with 10 nmole of PN(783)4.3 or PN(783)10.0. 50 μl of blood was collected from tail tip at the indicated times. The blood was processed as above, and diluted (25 μl plasma, 700 μl of PBS). Fluorescence was measured with Cary Eclipse Fluorescence Spectrophotometer, excitation at 765 nm and emission from 790 to 880 nm. The fluorescence intensity at 806 nm was plotted over time, and the data was fit with two-phase decay curve. The fast and slow distribution half-life was given by the two-phase decay fit with Graphpad Prism software.
Two compartment model: From the two-phase decay fit, a biexponential equation for blood concentration as a function of time, [picture] , was obtained. By the relation of macro constants and micro constants, [picture] , [picture] , [picture] , micro constants k's can be obtained, and the half-life was calculated by [picture] , as described in ^5. The curve for interstitium concentration vs. time was fit with MATLAB based on the curve of blood concentration vs. time.
Serum fluorescence data from Figure 3B and Figure 3C was analyzed using the two-compartment model as described ^5. Data were first fit to biexponential equation, yielding values of Alpha, Beta (apparent decay constants) and values of A and B as shown in equations 1 and 2 below.
A short description of series [3]: Quantum yield of fluorochrome-bearing peptides and PN's. It is filed as physicochemical. Particulars: means±1 S.D. From the text:
(The p values showing significances are in Figure S2 in File S1). […] PEG attachment increased quantum yields in all cases, but as discussed below the magnitude of PEG generated improvement varied with the fluorochrome chosen. A mechanism for the PEG improvement of quantum yield is fluorochrome shielding, or the blocking of fluorochrome-fluorochrome interactions that result in quenching.
However, the magnitude of these benefits varied with the fluorochrome selected. […] Previous studies indicated PEGylated, fluorochrome-bearing peptides have absorption spectra in PBS similar to their unstacked absorption spectra in methanol. […] It appears that longer wavelength fluorochromes have stronger fluorochrome/fluorochrome stacking interactions, which result in more quenching, which is blocked by PEG and which gives rise to larger increases in quantum yield.

In the next series the test system is HT-29 cells. Kind of series: Non-specific binding (NSB) to HT-29 cells by FACS. The format is cell-based, human. To be noted: 100 μL of nanoprobes (2 μM) added to 100 μl 2% FBS/DPBS, 30 min at 37 °C, means±1 S.D. An excerpt: We next examined the non-specific binding (NSB) of PN’s to HT-29 cells based on the assumption that NSB minimization will correlate with a desirable minimization of post-IV injection retention. As noted above, after diagnostic drugs generate their added information, retention can only increase the risks of delayed toxicity. The attachment of PEG decreased the non-specific binding (NSB) to HT-29 cells, scored as the percent of cells above the cutoff for unstained cells seen with FACS ( Table 1 , column 7).
PN and peptide binding to cells (effect of PEGylation on NSB): HT-29, a human colon carcinoma cell line, was from the American Tissue Culture Collection and maintained according to their instructions. Cells were seeded on 24-well plates at 5X10^5 cells/well in culture medium (RPMI 1640 with 10% FBS) the day before the assay. The day of assay, medium was removed, wells rinsed twice with DPBS (+Ca, +Mg), and 100 μl of 2% FBS / DPBS (+Ca, +Mg) added. 100 μL of Nanoprobes (2 μM) in DPBS (+Ca, +Mg) was added to cells and incubated for 30min at 37 °C. (Probe concentrations were determined spectrophotometrically (783 nm, extinction coefficient of 314 471 cm^-1 M^-1 for IR-783; 497 nm, extinction coefficient of 68 000 cm^-1 M^-1 for Fluorescein; 545 nm, extinction coefficient of 150 000 cm^-1 M^-1 for Cy3). Cells were detached by Trypsin/EDTA and assayed for fluorescence by FACS (BD 7 laser LSR2 for nanoprobes with IR-783; BD 3 laser LSR2 for nanoprobes with Fluorescein or Cy3).
Figure S4: Effect of PEGylation on non-specific binding to cells by single channel FACS. […] Arrows indicates the cutoff for unstained cells.

Consider “(DOTA)Lys(PEG 5 kDa)-Cys(IR-783) [PN(783)4.3, PEG-like Nanoprobe: 5 kDa PEG, IR-783 fluorochrome, DOTA peptide]”, for which, in series [1], the “Volume FPLC, globular protein equivalent molecular volume” value is recorded as 35.2 kDa and the “Volume FPLC Dia. (diameter)” value is on record as 4.3 nm. In addition, in series [2], the “k perm expressed as a half-life” value is 0.395 h, the Alpha half-life is reported as 0.13 h, the Beta half-life was 1.64 h and the k elim half-life turned out to be 1.01 h. For the same substance, in series [2], the k perm half-life was 0.40 h and the “k vas return half-life” value came to 0.20 h. In addition, the “Quant. Yield” value in series [3] came to 0.16±0.03. In addition, the “Cell NSB: percent of HT-29 cells above the cutoff for unstained cells” value (“Cell NSB: percent” below) with HT-29 cells was determined as 20±1%.

On to “(DOTA)Lys(PEG 30 kDa)-Cys(Fl) [PN(497)10.0, PEG-like Nanoprobe: 30 kDa PEG, fluorescein, DOTA peptide]”, for which the “Volume FPLC, globular protein equivalent molecular volume” value in series [1] is 435 kDa. Moreover, the “Quant. Yield” value in series [3] was determined as 0.60±0.08. Also, the “Cell NSB: percent” value in the series on HT-29 cells is recorded as 0.1% ±0.1%.

On to “(DOTA)Lys(PEG 30 kDa)-Cys(IR-783) [PN(783)10.0, PEG-like Nanoprobe: 30 kDa PEG, IR-783 fluorochrome, DOTA peptide]”, for which, in series [1], the “Volume FPLC, globular protein equivalent molecular volume” value came out at 435.4 kDa and the “Volume FPLC Dia. (diameter)” value is recorded as 10.0 nm. In addition, in series [2], the Alpha half-life stood at 0.51 h, the Beta half-life turned out to be 7.0 h, the k elim half-life was 4.2 h and the k perm half-life is recorded as 1.02 h. For the same substance, the “k vas return half-life” value in series [2] is on record as 1.23 h. The “Quant. Yield” value in series [3] came out at 0.16±0.04. Besides, the “Cell NSB: percent” value in the series on HT-29 cells worked out at 18±1%.
